Article PMC11497058 (2024)

How the values were obtained:
[1] = biological target: T1, Recombinant His‐tagged GRB2 protein (human, UniProt P62993 1-217); test: BLI
[2] = biological target: T1, Recombinant His‐tagged GRB2 protein; test: BLI; GRB2 preincubated with Rg3

- Kd [1]: 74.7 nM
- Kd [2]: 14 nM
B1: Recombinant His‐tagged TRKA protein (receptor)
chain: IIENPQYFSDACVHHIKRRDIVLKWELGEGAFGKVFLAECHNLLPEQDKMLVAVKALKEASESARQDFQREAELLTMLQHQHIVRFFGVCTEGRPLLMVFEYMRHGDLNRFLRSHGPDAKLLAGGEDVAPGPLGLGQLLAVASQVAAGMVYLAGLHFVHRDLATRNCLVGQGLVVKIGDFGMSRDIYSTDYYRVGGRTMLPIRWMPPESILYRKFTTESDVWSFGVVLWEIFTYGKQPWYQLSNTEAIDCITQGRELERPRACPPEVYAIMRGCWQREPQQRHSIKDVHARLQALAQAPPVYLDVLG
modifications: biotin (EZ‐Link NHS‐PEG12‐Biotin)
